Experimental data published in PMC4663120.

Biological target: FhuA ΔC/Δ5L (E. coli) (UniProt P06971)
Experiment: single-channel electrical recording on planar lipid bilayer

Substance: nucleocapsid protein 7 (NCp7) (natural protein)
- duration of transient current blockades: < 1 ms
